The record followed here is patent publication US20080207523.

The test system of the data set is Tenascin-C (human). The experiment in a line: competition.

With (TTA1-MAG2)2P5 aptamer dimer (22A), the EC50 (commonly the concentration needed to bring the measured effect to its halfway point) (two TTA1-MAG2 joined via bis-maleimide peptide linker P5 (bAla-Ser-Ser-Ser-Dpr-Met-Cys-Ser-Ser-Ser-Lys), competition binding assay against the lead compound) amounted to 3.6 nM.
With “TTA1-MAG2 aptamer monomer (2A, lead compound)”, the IC50 (in general, the concentration that inhibits the measured activity by half) (MAG2 conjugate, monomer comparator) worked out at 5.6 nM.
